Patent publication US7868138B2, “Methods for generating polynucleotides having desired characteristics by iterative selection and recombination” (priority 1994, dated 2011)

Assays:
CHO cells = experiment: Fluorescence spectroscopy of CHO cells expressing GFP; type: cell-based, chinese hamster; conditions: 2 mM sodium butyrate, 'wt' construct
Experimental: The wildtype and the cycle 2 and 3 mutant versions of the GFP gene were transferred into the eukaryotic expression vector Alpha+ (16) as an EcoRI-XbaI fragment. The plasmids were transfected into CHO cells by electroporation of 10^7 cells in 0.8 ml with 40 μg of plasmed at 400V and 250 μF. Transformants were selected using 1 mg/ml G418 for 10-12 days.
Improvements in autonomous characteristics such as self-folding can be tranferable to different cellular environments. After being selected in bacteria, the ‘cycle 3’ mutant GFP was transferred into the eukaryotic Alpha+ vector and expressed in chinese hamster ovary cells (CHO). […] FACS sorting confirmed that the average fluorescence signal of CHO cell clones expressing ‘cycle 3’ was 46-fold greater than cells expressing the ‘wt’ construct (FIG. 18B).

E. coli XL1-blue cells = experiment: Minimum inhibitory concentration (MIC) of cefotaxime by plating on cefotaxime plates; type: cell-based
Experimental: The minimum inhibitory concentration (MIC) of cefotaxime on bacterial cells lacking a plasmid was determined by plating 10 μl of a 10^−2 dilution of an overnight bacterial culture (about 1000 cfu) of E. coli XL1-blue cells (Stratagene, San Diego Calif.) on plates with varying levels of cefotaxime (Sigma, St. Louis Mo.), followed by incubation for 24 hours at 37° C.
Growth on cefotaxime is sensitive to the density of cells, and therefore similar numbers of cells needed to be plated on each plate (obtained by plating on plain LB plates). Platings of 1000 cells were consistently performed.
Growth on cefotaxime is dependent on the cell density, requiring that all the MICs be standardized (in our case to about 1,000 cells per plate). […] The 5 largest colonies grown at […] were plated for single colonies twice, and the Sfi1 inserts were analyzed by restriction mapping of the colony PCR products.
After selection, the plasmid of selected clones was transferred back into wild-type E. coli XL1-blue cells (Stratagene, San Diego Calif.) to ensure that none of the measured drug resistance was due to chromosomal mutations.

CCCC(=O)[O-].[Na+] [sodium butyrate]
increase of the fluorescence signal (CHO cells): 4-8 fold

B1: TEM-1: wild-type bacterial TEM-1 betalactamase, gene on a pUC18 derivative (protein, UniProt P62593 24-286, looked up)
Beta-lactamase TEM: HPETLVKVKDAEDQLGARVGYIELDLNSGKILESFRPEERFPMMSTFKVLLCGAVLSRVDAGQEQLGRRIHYSQNDLVEYSPVTEKHLTDGMTVRELCSAAITMSDNTAANLLLTTIGGPKELTAFLHNMGDHVTRLDRWEPELNEAIPNDERDTTMPAAMATTLRKLLTGELLTLASRQQLIDWMEADKVAGPLLRSALPAGWFIADKSGAGERGSRGIIAALGPDGKPSRIVVIYTTGSQATMDERNRQIAEIGASLIKHW
minimum inhibitory concentration of cefotaxime (E. coli XL1-blue cells; 24 hours at 37° C., about 1,000 cells per plate): approximately 0.02 μg/ml
MIC (E. coli XL1-blue cells; cefotaxime, mutants in identical plasmid background pUC182Sfi, no literature source in table): 0.02 µg/mL
